Test [1] has as its target SARS-CoV-2 Variant B.1.17 N501Y S1-His (SARS-CoV-2, UniProt P0DTC2 16-685). The test is described as follows: Octet BLI, IgG, monovalent. In general terms: Biolayer interferometry detects binding as a change in optical thickness at a sensor tip.
The target in test [2] is SARS-CoV-2 Alpha (B.1.1.7) spike protein (on reporter virus particles) (SARS-CoV-2, UniProt P0DTC2 14-1273). The test is described as follows: cell-based or functional assay.
Test [3] deals with SARS-CoV-2 Beta (B.1.351) spike protein (on reporter virus particles) (SARS-CoV-2, UniProt P0DTC2 14-1273). Nature of the test: cell-based or functional assay.
Test [4] has as its target SARS-CoV-2 B.1.1.7 N501Y (Alpha) RBD (SARS-CoV-2, UniProt P0DTC2 319-541). The test is described as follows: Octet BLI single point, monovalent.
Test [5] has as its target SARS-CoV-2 L452R RBD (Epsilon) (SARS-CoV-2, UniProt P0DTC2 319-541). Nature of the test: Octet BLI single point, monovalent.
Test [6] addresses SARS-CoV-2 P.1 Spike (Gamma) (SARS-CoV-2, UniProt P0DTC2 16-1213). The test is described as follows: Octet BLI single point, monovalent.
Test [7] addresses SARS-CoV-2 RBD-mFc (SARS-CoV-2, UniProt P0DTC2 319-541). The test is described as follows: Octet BLI, IgG, avid.
The target in test [8] is SARS-CoV-2 B.1.351 (Beta) RBD (SARS-CoV-2, UniProt P0DTC2 319-541). Nature of the test: Octet BLI single point, monovalent.
Test [9] deals with SARS-CoV-2 Omicron (B.1.529) spike protein (on reporter virus particles) (SARS-CoV-2, UniProt P0DTC2 14-1273). The test is described as follows: cell-based or functional assay.

B1: A-20 (antibody, V domains shown)
VH: QVQLVESGGGVVQPGRSLRLSCAASGFTFSNFAMHWVRQAPGKGLEWVAVILYDGINKYYADSVKGRFTISRGNSKNTLSLQMNSLRAEDTAVYYCARAQNYYDRSGTLQLDAFDIWGQGTLVTVSS
VL: AIQMTQSPSSLSASVGDRVTITCRASQGIRNDLGWYQQKPGKAPKLLIYAASSLQSGVPSRFSGSGSGTDFTLTISSLQPEDFATYYCLQDYNYPLTFGGGTKVEIK
For B1, binding in test [1] was put at a Kd of 2.57 nM.

B2: A-20.1 (antibody, V domains shown)
VH: QVQLVESGGGVVQPGRSLRLSCAASGFTFSNFAMHWVRQAPGKGLEWVAVILYDGINKYYADSVKGRFTISRGNSKNTLSLQMNSLRAEDTAVYYCARAQNYYDRSGTLQLDAFDIWGQGTLVTVSS
VL: AIQMTQSPSSLSASVGDRVTITCVASQGIRNDLGWYQQKPGKAPKLLIYEASSLESGVPSRFSGSGSGTDFTLTISSLQPEDFATYYCLQDYNYPLTFGGGTKVEIK
For the molecule B2, in test [1], the Kd (commonly the constant that tells how readily two partners part at equilibrium) was 0.604 nM.

B3: A-6 (antibody, V domains shown)
VH: QVQLVQSGGGVVQPGRSLRLSCAASGFTFSNFAMHWVRQAPGKGLEWVAVILYDGINKYYADSVKGRFTISRGNSKNTLSLQMNSLRAEDTAVYYCARAQNYYDRSGTLQLDAFDIWGQGTMVTVSS
VL: DIVMTQSPSSLSASVGDRVTITCRASQGIRNDLGWYQQKPGKAPKLLIYAASSLQSGVPSRFSGSGSGTDFTLTISSLQPEDFATYYCLQDYNYPLTFGGGTKVEIK
Consider B3, for which the “PsV neutralization IC50” value in [2] was determined as 0.192 µg/mL; in test [3] it was 0.171 µg/mL. Further, the results for the “PsV neutralization IC90” value in test [2] and in test [3] were 1.21 µg/mL and 1.47 µg/mL, respectively. Further, the Kd in test [4] worked out at 1.46 nM; in test [5], 1.45 nM; in test [6] it was 2.05 nM; in test [7] it was 0.146 nM.

B4: A-16 (antibody, V domains shown)
VH: QVQLVESGGGLVQPGRSLRLSCAASGFTFDDYAMHWVRQAPGKGLEWVSGISWNSGTIGYADSVKGRFIISRDNAKNSLYLQMNSLRGEDMALYYCGKDRKREDPSLGGMDVWGQGTTVTVSS
VL: SYELTQPPSVSVAPGQTARITCGGNNIGSKSVHWYQQKPGQAPVLVVYDDTDRPSGIPERFSGSNSGNTATLTISRVEAGDEADYYCQVWDSSSDHYVFGTGTKLTVL
On to B4, for which the entries for the “PsV neutralization IC50” value in [2] and in [3] were 0.025 µg/mL and 0.103 µg/mL, respectively. Further, the “PsV neutralization IC90” value in test [2] turned out to be 0.329 µg/mL; in test [3] it was 0.905 µg/mL. Moreover, the Kd stood at 4.62 nM in [4], 6.05 nM in test [8], 4.83 nM in test [6] and 0.081 nM in test [7]. Moreover, in [9], the “PsV IC50, Test 1” value worked out at 0.19 nM.

B5: A-23.2 (antibody, V domains shown)
VH: EVQLVESGGGLVQPGRSLRLSCAASGFTFDDYAMHWVRQAPGKGLEWVSGTSWNSGTIGYADSVKGRFIISRDNAKNSLYLQMNSLRGEDMALYYCVKDRKREDPSLGGMDVWGQGTTVTVSS
VL: SYVLTQPPSVSVAPGQTARITCGGNNIGSKSVHWYQQKPGQAPVLVVYDDTDRPSGIPERFSGSNSGNTATLTISRVEAGDEADYYCQVWDVSSDSYVFGTGTKVTVL
Turning to B5, the Kd in [1] stood at 0.242 nM. This lies in the sub-nanomolar range.

B6: A-23.3 (antibody, V domains shown)
VH: EVQLVESGGGLVQPGRSLRLSCAASGFTFDDYAMHWVRQAPGKGLEWVSGTSWNSGTIGYADSVKGRFIISRDNAKNSLYLQMNSLRGEDMALYYCVKDRKREDPSLGGMDVWGQGTTVTVSS
VL: SYVLTQPPSVSVAPGQTARITCGGNNIGSKSVHWYQQKPGQAPVLVVYDDTDRPSGIPERFSGSNSGNTATLTISRVEAGDEADYYCQVWDSSSDDYVFGTGTKVTVL
In test [1], B6 had a Kd of 0.286 nM.

Values taken from patent publication US20260217797A1 (Takeda / Millennium, published 2026).
